Here are results for 8 substances from publication PMC9075797.

The first assay deals with SARS-CoV-2 RBD tagged with a C-terminal Fc tag (SARS-CoV-2; strain not stated, ancestral (Wuhan-Hu-1) assumed) (UniProt P0DTC2). The assay is described as follows: BLI. A general note: Biolayer interferometry detects binding as a change in optical thickness at a sensor tip.
“(Nb1C)2, Tet-linked homodimer of VHH72 with Tet3.0 at the C terminus”: the Kd (commonly a measure of binding affinity in units of concentration) is 132 nM, the koff (usually a measure of how fast the partners let go of each other) was found to be 0.0064 s⁻¹ and the kon (commonly the second-order rate constant of association) stood at 48100 M⁻¹ s⁻¹.

With “Nb1-Nb1 tail-to-head genetically linked dimer of VHH72”, the koff came to 0.00314 s⁻¹ and the kon worked out at 35400 M⁻¹ s⁻¹.

As for “Nb1-Nb1-Nb1 tail-to-head genetically linked trimer of VHH72”, the Kd came to 27.9 nM, the koff is 0.00156 s⁻¹ and the on-rate constant (kon) was determined as 57900 M⁻¹ s⁻¹.

A further assay deals with SARS-CoV-2 RBD tagged with a C-terminal Fc tag (SARS-CoV-2) (UniProt P0DTC2). The experiment in a line: BLI.
The substance “(Nb1N)2, Tet-linked homodimer of VHH72 with Tet3.0 at the N terminus” had a Kd of 13.8 nM, a koff of 0.00119 s⁻¹ and a kon of 85800 M⁻¹ s⁻¹.

“(Nb1N)3, Tet-linked homotrimer of VHH72 with Tet3.0 at the N terminus” came in with a Kd of 2.31 nM, a koff of 0.000566 s⁻¹ and a kon of 246000 M⁻¹ s⁻¹.

“(Nb1N)-(Nb2_(42)), Tet-linked heterodimer of VHH72 (Tet3.0 at the N terminus) and H11-H4 (Tet3.0 at Gly42)” registered a Kd of 3.93 nM, a koff of 0.000593 s⁻¹ and a kon of 151000 M⁻¹ s⁻¹.

“(Nb1_(13))2, Tet-linked homodimer of VHH72 with Tet3.0 at Gln13” returned a Kd of 46 nM, a koff of 0.00156 s⁻¹ and a kon of 33800 M⁻¹ s⁻¹.

“(Nb1_(42))2, Tet-linked homodimer of VHH72 with Tet3.0 at Gly42” came in with a dissociation constant Kd of 27.5 nM, a koff of 0.00201 s⁻¹ and a kon of 73100 M⁻¹ s⁻¹.
